[ ]: non-standard residue; d: D form. pDMA = poly(N,N-dimethylacrylamide) hydrophilic homopolymer (2)
Target: the molecule itself
Assay: static light scattering (SLS); conjugates in water, 0.1-3.0 mg mL^-1, filtered (0.45 um PTFE); before and after 1 h of sonication (1 h and 3 days of standing); Nagg = molecular weight of the aggregate / molecular weight of the unimer; length = Nagg x 0.5 nm

B1: CP-(pDMA)2 (4), cyclic peptide-hydrophilic polymer conjugate (peptide)
peptide: cyclo([dL]K(pDMA)[dL]W[dL]K(pDMA)[dL]W)
notes: cyclo(D-Leu-Lys-D-Leu-Trp)2, printed in three-letter code; designed cyclic octapeptide of alternating D and L residues (cyclic peptide 10); the same CP as in m1; also called control conjugate; fully hydrophilic control conjugate
stoichiometry N: 25
